Test results as given in patent US8617548B2 (priority 2006, dated 2013).
Read-outs that look alike come from different tables or passages of the source.

B1: ETI-204 (antibody, chains of the INN, looked up, V domains shown)
VH: QVQLQQSGPELKKPGASVKVSCKDSGYAFSSSWMNWVRQAPGQGLEWIGRIYPGDGDTNYNGKFQGRVTITADKSSSTAYMELSSLRSEDTAVYFCARSGLLRYAMDYWGQGTLVTVSS
VL: DIQMTQSPSSLSASVGDRVTITCRASQDIRNYLNWYQQKPGKAVKLLIYYTSRLLPGVPSRFSGSGSGTDYSLTISSQEQEDIGTYFCQQGNTLPWTFGQGTKVEIR

Key:
B. anthracis = test system: B. anthracis; parameters: species or system New Zealand White (NZW) rabbits; settings: rabbit, in vivo
[1] = cynomolgus monkey, in vivo

| Molecule | Blood sample, B. anthracis positive culture, Study Day 34 (end of study) (B. anthracis) | Blood sample, B. anthracis positive culture, moribund euthanized or found dead (B. anthracis) | Tissue (spleen) sample, B. anthracis positive culture, Study Day 34 (end of study) (B. anthracis) | Tissue (spleen) sample, B. anthracis positive culture, moribund euthanized or found dead (B. anthracis) | Blood sample, B. anthracis positive culture, Study Day 34 (end of study) (B. anthracis; iv) | Tissue (spleen) sample, B. anthracis positive culture, Study Day 34 (end of study) (B. anthracis; iv) | bioavailability of IM anti-PA as compared to IV administration [1] [%] | clearance (in words) [1] | volume of distribution at a steady-state (in words) [1] | AUC (0-inf) dose dependency (in words) ([1]; im, 10 mg/kg) |
| --- | --- | --- | --- | --- | --- | --- | --- | --- | --- | --- |
| C[C@H]1COc2c(N3CCN(C)CC3)c(F)cc3c(=O)c(C(=O)O)cn1c23 [Levofloxacin, levofloxacin, reference compound] | 0/4 | 8/8 | 0/4 | 7/8 | – | – | – | – | – | – |
| B1 | 0/4 | – | 0/4 | – | 0/4 | 0/4 | 83 | lower clearance | small volume of distribution | linear by dose |
